Assay results from the supplement of paper PMC6757056.
± gives the standard deviation of the averaged measurements.

B1: library; a variant is named by its letters at N, in order (parent)
chain: GCUGUCACCGGUGCUUGGUACGUUAUAUUCAGCCGGUCUGAUGAGUCUNNNNNNAGACGAAACAGC

Assays:
[1] = variants of: B1; test: normalized RNA/DNA level without ligand (relative to sTRSVctl = 100) (log10 (% of sTRSVctl)); HEK293T overexpressing SLC46A1; higher = less ribozyme self-cleavage, higher mRNA level; details: without (6R,S)-folinic acid; ligand present: no
In short: (§1)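 Library plasmids encoding reporter-linked ribozyme switches (mCherry, or eGFP for some folinic acid experiments) were transfected into HEK293T at 4 µg per 6-well well. Ligand, when used, was added 1 h before transfection. Total RNA was extracted with EDTA 72 h later, then reverse-transcribed, amplified, barcoded and sequenced. RNA level was RNA reads over DNA reads, divided by a spiked-in non-cleaving control (or the top 25 sequences), ×100, log10; only sequences with ≥100 DNA reads were kept.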

[2] = variants of: B1; test: normalized RNA/DNA level with ligand (relative to sTRSVctl = 100) (log10 (% of sTRSVctl)); HEK293T overexpressing SLC46A1; ligand concentration (+) RNA-Seq: 6 mM; higher = less ribozyme self-cleavage, higher mRNA level; details: with (6R,S)-folinic acid; ligand present: yes
In short: as §1

Row | Variant | normalized RNA/DNA level without ligand (log10) [1] | normalized RNA/DNA level with ligand (log10) [2]
1 | AUGCGC | 2.017 ± 0.0084 | 2.009 ± 0.018
2 | AUGUUC | 2.0332 ± 0.0018 | 2.01 ± 0.021
3 | AUGUUU | 1.976 ± 0.015 | 2.004 ± 0.011
4 | AUGUUG | 1.889 ± 0.01 | 2.017 ± 0.019
5 | AUGUUA | 1.938 ± 1.9e-05 | 1.98 ± 0.057
6 | GUGUCG | 2.006 ± 0.0093 | 2.06 ± 0.037
7 | GUGUCU | 1.982 ± 0.0041 | 1.98 ± 0.045
8 | GUGUCC | 1.97 ± 0.011 | 1.99 ± 0.034
9 | UUGGUC | 2.047 ± 0.0021 | 2.041 ± 0.003
10 | UUGGUU | 2.014 ± 0.0096 | 2.052 ± 0.019
11 | UUGGUA | 1.92 ± 0.021 | 1.999 ± 0.014
12 | CUGGCC | 2.079 ± 0.011 | 2.03 ± 0.032
13 | CUGGCA | 1.999 ± 0.0069 | 1.98 ± 0.042
14 | CUGGCG | 1.99 ± 0.026 | 2.03 ± 0.037
15 | AUUAAU | 1.9586 ± 0.0017 | 1.98 ± 0.033
16 | AUUAAG | 1.931 ± 0.011 | 2.01 ± 0.026
17 | AUUAAC | 2.011 ± 0.0026 | 2.03 ± 0.033
18 | UUUACG | 1.859 ± 0.0091 | 1.98 ± 0.03
19 | UUUACA | 2.0168 ± 0.00066 | 2.029 ± 0.0067
20 | CUGUUG | 2.04 ± 0.035 | 2.03 ± 0.027
21 | CUGUUU | 2.022 ± 0.0036 | 2.06 ± 0.041
22 | CUGUUC | 2.049 ± 0.016 | 2.03 ± 0.024
23 | CUGUUA | 1.994 ± 0.0099 | 2.04 ± 0.03

Row | Variant | normalized RNA/DNA level without ligand (log10) [1] | normalized RNA/DNA level with ligand (log10) [2]
24 | UUGCAU | 1.975 ± 0.0029 | 2.01 ± 0.043
25 | UUGCAC | 2.008 ± 0.015 | 2.02 ± 0.026
26 | UUGCAA | 1.96 ± 0.0066 | 1.987 ± 0.0035
27 | CUUAAG | 1.913 ± 0.0089 | 1.986 ± 0.0033
28 | CUUAAU | 1.989 ± 0.0044 | 2.001 ± 0.011
29 | CUUAAA | 1.9796 ± 8.1e-05 | 1.968 ± 0.017
30 | CUUAAC | 1.9881 ± 0.0006 | 1.983 ± 0.0059
31 | CUGGGU | 2.025 ± 0.02 | 2.032 ± 0.017
32 | CUGGGG | 1.871 ± 0.005 | 2.007 ± 0.0051
33 | CUGGGC | 2.059 ± 0.0035 | 2.03 ± 0.03
34 | GUGCCC | 2.032 ± 0.012 | 2.02 ± 0.074
35 | GUGCCU | 2.02 ± 0.024 | 1.98 ± 0.039
36 | GUGCCA | 2.057 ± 0.015 | 2.006 ± 0.0095
37 | GUGGAA | 1.915 ± 0.0022 | 2.01 ± 0.048
38 | GUGGAU | 1.9394 ± 0.0013 | 2.01 ± 0.035
39 | GUGGAG | 1.86 ± 0.027 | 2 ± 0.041
40 | AUGGCC | 2.063 ± 0.0035 | 2.04 ± 0.05
41 | AUGGCU | 1.989 ± 0.011 | 2.02 ± 0.031
42 | AUGGCA | 1.9865 ± 2.8e-05 | 2 ± 0.046
43 | GUUAUC | 2.027 ± 0.012 | 2.044 ± 0.0079
44 | GUUAUU | 2.016 ± 0.0067 | 2.007 ± 0.02
45 | GUGUAU | 1.962 ± 0.0048 | 2.01 ± 0.022
46 | AUUAUC | 2.062 ± 0.01 | 2.03 ± 0.022

Row | Variant | normalized RNA/DNA level without ligand (log10) [1] | normalized RNA/DNA level with ligand (log10) [2]
47 | AUUAUA | 1.9581 ± 0.0013 | 1.97 ± 0.025
48 | AUUAUG | 1.94 ± 0.021 | 2.02 ± 0.033
49 | CUGAUG | 2.014 ± 0.013 | 2.013 ± 0.014
50 | CUGAUC | 2.0695 ± 0.0006 | 2.038 ± 0.013
51 | CUGAUA | 1.9701 ± 0.00086 | 2.02 ± 0.048
52 | CUGAUU | 2.015 ± 0.007 | 2.05 ± 0.052
53 | GUGGUA | 1.913 ± 0.0048 | 1.97 ± 0.019
54 | GUGGUC | 2.02 ± 0.023 | 2 ± 0.029
55 | GUGUGG | 1.908 ± 0.0095 | 2.03 ± 0.048
56 | GUUAAU | 1.9687 ± 4.4e-05 | 2.04 ± 0.026
57 | GUUAAA | 1.991 ± 0.011 | 2 ± 0.039
58 | GUUAAC | 1.976 ± 0.0067 | 2.024 ± 0.015
59 | GUUAAG | 1.96 ± 0.006 | 2.02 ± 0.027
60 | GUGAUC | 2.03 ± 0.021 | 2.036 ± 0.02
61 | GUGAUU | 2.01 ± 0.024 | 2.02 ± 0.022
62 | GUGAUG | 1.908 ± 0.015 | 1.99 ± 0.035
63 | UUGCCC | 2.04 ± 0.031 | 2.03 ± 0.036
64 | UUGCCU | 2.07 ± 0.028 | 2.07 ± 0.024
65 | UUGCCA | 2.024 ± 0.013 | 2.042 ± 0.02
66 | UUGCCG | 1.974 ± 0.0045 | 2.03 ± 0.038
67 | UUGCGG | 1.96 ± 0.02 | 2 ± 0.031
68 | UUGCGA | 1.97 ± 0.022 | 2.02 ± 0.055
69 | UUGCGU | 1.98 ± 0.031 | 2.03 ± 0.032

Row | Variant | normalized RNA/DNA level without ligand (log10) [1] | normalized RNA/DNA level with ligand (log10) [2]
70 | UUGCGC | 2.062 ± 0.007 | 2.079 ± 0.00078
71 | AUGGGC | 2.014 ± 0.0055 | 2.03 ± 0.041
72 | AUGGGU | 1.82 ± 0.006 | 1.998 ± 0.0034
73 | AUGGAU | 1.889 ± 0.0038 | 2.01 ± 0.033
74 | GUGCUC | 2.05 ± 0.032 | 2.01 ± 0.045
75 | GUGCUA | 1.994 ± 0.0059 | 1.98 ± 0.04
76 | GUGCUU | 2.037 ± 0.0067 | 2.039 ± 0.015
77 | GUGCAG | 1.931 ± 0.0076 | 2.01 ± 0.021
78 | GUGCAC | 1.935 ± 0.0098 | 2 ± 0.0049
79 | GUGCAA | 1.975 ± 0.0071 | 1.999 ± 0.01
80 | GUGCAU | 1.973 ± 0.0054 | 2.02 ± 0.051
81 | AUGUAA | 1.938 ± 0.011 | 2 ± 0.023
82 | AUGUAC | 1.959 ± 0.01 | 1.98 ± 0.025
83 | AUGUAU | 1.94 ± 0.025 | 2.03 ± 0.027
84 | UUGUAC | 1.9902 ± 0.00038 | 2.02 ± 0.045
85 | UUGUAA | 1.943 ± 0.011 | 2.003 ± 0.016
86 | UUGGAC | 1.972 ± 0.015 | 1.98 ± 0.032
87 | UUGGAU | 1.971 ± 0.012 | 2.022 ± 0.012
88 | AUGAGG | 1.812 ± 0.017 | 2.009 ± 0.013
89 | AUGUCA | 1.979 ± 0.0033 | 2.01 ± 0.016
90 | AUGUCU | 1.993 ± 0.017 | 1.99 ± 0.02
91 | AUGUCG | 1.93 ± 0.0088 | 1.99 ± 0.027
92 | AUGUCC | 2.04 ± 0.026 | 2.0107 ± 0.0015

Row | Variant | normalized RNA/DNA level without ligand (log10) [1] | normalized RNA/DNA level with ligand (log10) [2]
93 | GUUACU | 2.03 ± 0.027 | 2.03 ± 0.037
94 | GUUACA | 2.009 ± 0.012 | 2.01 ± 0.053
95 | GUUACG | 1.988 ± 0.012 | 2.02 ± 0.034
96 | GUGAGU | 1.96 ± 0.025 | 2.03 ± 0.025
97 | CUUCCG | 2.05 ± 0.029 | 2.06 ± 0.046
98 | CUUCCA | 2.023 ± 0.014 | 2.02 ± 0.037
99 | CUUCCC | 2.01 ± 0.03 | 2.002 ± 0.007
100 | UUGUGA | 1.96 ± 0.0028 | 2.04 ± 0.031
101 | UUGUGU | 2.03 ± 0.011 | 2.05 ± 0.031
102 | UUGUGC | 2.018 ± 0.0046 | 2.053 ± 0.02
103 | UUGUGG | 1.888 ± 0.0042 | 2.06 ± 0.044
104 | AUUAGC | 1.987 ± 0.0093 | 2.021 ± 0.0097
105 | AUUAGU | 1.95 ± 0.028 | 2.01 ± 0.028
106 | AUGUGU | 1.83 ± 0.032 | 1.97 ± 0.047
107 | AUGUGC | 1.97 ± 0.021 | 1.981 ± 0.018
108 | AUGUGA | 1.944 ± 0.014 | 2.014 ± 0.019
109 | CUGUCC | 2.059 ± 0.0043 | 2.043 ± 0.017
110 | CUGUCG | 2 ± 0.031 | 2.06 ± 0.065
111 | CUGUCA | 2.033 ± 0.011 | 2.07 ± 0.039
112 | CUGUCU | 2.037 ± 0.0082 | 2.04 ± 0.034
113 | CUGCUA | 2.02 ± 0.021 | 2.05 ± 0.031
114 | CUGCUU | 2.046 ± 0.013 | 2.04 ± 0.03
115 | CUGCUC | 2.11 ± 0.053 | 2.02 ± 0.034
